The subject of data set [1] is A549 cells. Conditions: cited from earlier work.
Data set [2] deals with A549 cells. Kind of data set: MTS cell proliferation assay, A549 cells with exogenously added L-PGDS. It counts as cell-based, human. Conditions: for A549 hyperproliferation: exogenously added L-PGDS, qualitative statement. How it is done:
(§1) The effect of exogenously added L-PGDS on lung cell growth in culture was determined by MTS proliferation assay (Promega, Madison, Wis.). […] MLE cell proliferation was unaffected at L-PGDS concentrations up to […] but ceased at a concentration of 25 mg/l and above, as shown in FIG. 6.
(§2) Cell proliferation was measured with the use of a CellTiter 96 AQeous Non-Radioactive Cell Proliferation Assay (Promega, Madison, Wis.). Briefly, cells were plated in 96-well plates at a density of 500 cells/well in 200 μl of medium with 5% FBS. The cells were incubated at 37° C. in a humidified 5% CO2 atmosphere for the indicated time, after which 20 μl of combined MTS/PMS solution (Promega) was added per well. After a 2 h incubation at 37° C., absorbance at 490 nm was measured using an enzyme-linked immunosorbent assay (ELISA) plate reader. Data represent the average absorbance of three experiments each performed in triplicate.
The effect of exogenously added L-PGDS on A549 proliferation was observed.
A general note: Tetrazolium assays rely on reduction of a dye to a coloured formazan, in cell work by metabolically active cells.

Data set [3] has as its system mouse lung epithelial (MLE) cells. The data set can be described thus: MTS cell proliferation assay, control mouse lung epithelial (MLE) cells. It is filed as cell-based. As to conditions: 18 h incubation. As for the experimental part: as §1, §2
Data set [4] relates to A549 cells. Kind of data set: PDGF-stimulated trans-well migration assay, A549 cells. As to conditions: for decrease in PGDF stimulated A549 migration: 5 h, trans-well inserts; for PDGF-stimulated migration of A549 cells: exogenously added L-PGDS, qualitative statement. It counts as cell-based, human. How it is done:
Migration assays were performed using 24-well cell culture inserts with 8.0 μm polyethylene terephthalate cyclopore membranes (Falcon) as detailed in Lundberg M S, Curto K A, Bilato C, Monticone R E, Crow M T. Regulation of vascular smooth muscle migration by mitogen-activated protein kinase and calcium/calmodulin-dependent protein kinase II signaling pathways. J Mol Cell Cardiol 1998; 30:2377-89. The underside of the membrane was coated with 100 μl rat tail collagen type I (50 μg/ml) for 18-20 h, washed and air-dried before each experiment. Cells were trypsinized and re-suspended in RPMI. Then 2×10^4 cells/250 μl were loaded into the cell culture inserts. The inserts were then added to the wells of 24-well plates which were filled with PDGF-BB diluted in RPMI with 0.1% BSA, and where indicated, L-PGDS was also added to this medium below the inserts.
The chambers were then incubated at 37° C. for 5 h to allow for cell migration. Afterwards, cells were completely removed from the upper side of the membrane with a cotton swab and the remaining migrated cells fixed and stained with Diff-Quik® solution (Dade Behring, Newark, Del.). Results are reported as the mean+/−SEM of five different fields, from three experiments, counted at 200× magnification.
The effect of L-PGDS on A549 migration was examined using trans-well inserts. FIG. 7 illustrates a 42% decrease in PGDF stimulated A549 migration in the presence of […] L-PGDS and a 77% decrease in the presence of […] L-PGDS. […] Cells were cultured and loaded into collagen coated […] cell culture inserts in the absence or presence of L-PGDS (25 or 50 μg/ml) as described above. Actual fields at 200× magnification are presented.

The test system of data set [5] is Lipocalin-type prostaglandin D2 synthase (EC=5.3.99.2). Conditions: alanine substitution in human L-PGDS; Zhou et al., FASEB J. 2010; cited from earlier work.

Entries after “also recorded” stand apart in the source; their conditions may differ.

Turning to `CCCCC/C=C/C=C1/C(=O)C=C[C@@H]1C/C=C\CCCC(=O)O` [15d-PGD2, 15-deoxy-Delta12,14-prostaglandin J2], the “role in PGD2-induced apoptosis in A549 cells” value in data set [1] (PGD2 metabolites) is recorded as “likely candidate for the principal apoptotic inducer”.

For the molecule `CCCCC[C@H](O)/C=C/[C@H]1C(=O)C[C@H](O)[C@@H]1C/C=C\CCCC(=O)O` [PGD2, Prostaglandin D2], the “A549 cell death / apoptosis” value in data set [1] (A549 cells treated with PGD2) was “induces A549 cell death through the intrinsic apoptotic pathway”. Moreover, the “involvement of DP or CRTH2/DP2 in PGD2-induced A549 cell death” value in data set [1] (DP and CRTH2/DP2 blocked with BWA868C and ramatroban) is recorded as “does not appear to involve either DP or CRTH2/DP2”.

B1: L-PGDS: Lipocalin-type prostaglandin D2 synthase protein, exogenously added to cultured cells (protein, UniProt P41222 23-190, looked up)
Prostaglandin-H2 D-isomerase: APEAQVSVQPNFQQDKFLGRWFSAGLASNSSWLREKKAALSMCKSVVAPATDGGLNLTSTFLRKNQCETRTMLLQPAGSLGSYSYRSPHWGSTYSVSVVETDYDQYALLYSQGSKGPGEDFRMATLYSRTQTPRAELKEKFTAFCKAQGFTEDTIVFLPQTDKCMTEQ
As for B1, the A549 cell proliferation entry in data set [2] (L-PGDS 1-50 mg/l, 18 h incubation, MTS assay) is reported as “marked inhibition”. Also, the “A549 hyper-proliferative growth (OD490nm)” value in data set [2] (exogenously added L-PGDS 0, 10, 25, 50 μg/ml, proliferation determined after 2 h) is “dose responsive inhibition”. Moreover, the A549 hyperproliferation result in data set [2] is listed as “suppresses”; in data set [2] (listed as LPGDS), “suppress”. Further, the “L-PGDS concentration at which MLE cell proliferation ceased” value in data set [3] is at least 25 mg/L. Moreover, the “L-PGDS concentrations at which MLE cell proliferation was unaffected” value in data set [3] is recorded as “up to 10 mg/dl”. In addition, the results for the “decrease in PGDF stimulated A549 migration” value in data set [4] (25 μg/μl L-PGDS) and in data set [4] (50 μg/μl L-PGDS) were 42% and 77%, respectively. Further, the A549 migration inhibition entry in data set [4] (100 μg/μl L-PGDS (data not shown)) is on record as “no further increase in migration inhibition”. Also, the entries for the “PDGF-stimulated migration of A549 cells” value in data set [4] and in data set [4] (listed as LPGDS) were “suppresses; also recorded: inhibits” and “suppress”, respectively.

B2: 79 L→A: human L-PGDS with residue 79 L changed to A (protein, UniProt P41222 23-190, looked up, variant L79A)
Prostaglandin-H2 D-isomerase: APEAQVSVQPNFQQDKFLGRWFSAGLASNSSWLREKKAALSMCKSVVAPATDGGLNATSTFLRKNQCETRTMLLQPAGSLGSYSYRSPHWGSTYSVSVVETDYDQYALLYSQGSKGPGEDFRMATLYSRTQTPRAELKEKFTAFCKAQGFTEDTIVFLPQTDKCMTEQ
As for B2, in data set [5], the “change of enzyme activity by sequence modification” value (from here on “change of enzyme activity”) is “Reduces enzyme activity over ten-fold”.

B3: 83 F→A: human L-PGDS with residue 83 F changed to A (protein, UniProt P41222 23-190, looked up, variant F83A)
Prostaglandin-H2 D-isomerase: APEAQVSVQPNFQQDKFLGRWFSAGLASNSSWLREKKAALSMCKSVVAPATDGGLNLTSTALRKNQCETRTMLLQPAGSLGSYSYRSPHWGSTYSVSVVETDYDQYALLYSQGSKGPGEDFRMATLYSRTQTPRAELKEKFTAFCKAQGFTEDTIVFLPQTDKCMTEQ
For the molecule B3, in data set [5], the “change of enzyme activity” value was “Reduces enzyme activity about five-fold”.

B4: 64 M→A: human L-PGDS with residue 64 M changed to A (protein, UniProt P41222 23-190, looked up, variant M64A)
Prostaglandin-H2 D-isomerase: APEAQVSVQPNFQQDKFLGRWFSAGLASNSSWLREKKAALSACKSVVAPATDGGLNLTSTFLRKNQCETRTMLLQPAGSLGSYSYRSPHWGSTYSVSVVETDYDQYALLYSQGSKGPGEDFRMATLYSRTQTPRAELKEKFTAFCKAQGFTEDTIVFLPQTDKCMTEQ
Consider B4, for which the “change of enzyme activity” value in data set [5] was “Reduces enzyme activity almost ten-fold”.

B5: 59 K→A: human L-PGDS with residue 59 K changed to A (protein, UniProt P41222 23-190, looked up, variant K59A)
Prostaglandin-H2 D-isomerase: APEAQVSVQPNFQQDKFLGRWFSAGLASNSSWLREKAAALSMCKSVVAPATDGGLNLTSTFLRKNQCETRTMLLQPAGSLGSYSYRSPHWGSTYSVSVVETDYDQYALLYSQGSKGPGEDFRMATLYSRTQTPRAELKEKFTAFCKAQGFTEDTIVFLPQTDKCMTEQ
In the case of B5, in data set [5], the “change of enzyme activity” value is “Increases enzyme activity about two-fold”.

B6: 131 L→A: human L-PGDS with residue 131 L changed to A (protein, UniProt P41222 23-190, looked up, variant L131A)
Prostaglandin-H2 D-isomerase: APEAQVSVQPNFQQDKFLGRWFSAGLASNSSWLREKKAALSMCKSVVAPATDGGLNLTSTFLRKNQCETRTMLLQPAGSLGSYSYRSPHWGSTYSVSVVETDYDQYALAYSQGSKGPGEDFRMATLYSRTQTPRAELKEKFTAFCKAQGFTEDTIVFLPQTDKCMTEQ
As to B6, the “change of enzyme activity” value in data set [5] is given as “Reduces enzyme activity almost ten-fold”.

B7: 149 Y→A: human L-PGDS with residue 149 Y changed to A (protein, UniProt P41222 23-190, looked up, variant Y149A)
Prostaglandin-H2 D-isomerase: APEAQVSVQPNFQQDKFLGRWFSAGLASNSSWLREKKAALSMCKSVVAPATDGGLNLTSTFLRKNQCETRTMLLQPAGSLGSYSYRSPHWGSTYSVSVVETDYDQYALLYSQGSKGPGEDFRMATLASRTQTPRAELKEKFTAFCKAQGFTEDTIVFLPQTDKCMTEQ
Consider B7, for which, in data set [5], the “change of enzyme activity” value was “Increases enzyme activity about two-fold”.

The record behind these values is patent US20110318308A1, “LIPOCALIN-TYPE PROSTAGLANDIN D2 SYNTHASE AS A BIOMARKER FOR LUNG CANCER PROGRESSION AND PROGNOSIS” (WINTHROP-UNIVERSITY HOSPITAL, priority 2010, published 2011).
